According to patent US20100048462A1, “TRUNCATED PTH PEPTIDES WITH A CYCLIC CONFORMATION” (Zealand Pharma A/S, priority 2006, published 2010):
Square brackets hold non-standard residues; d marks the D form. hArg = N=C(N)NCCCC[C@H](N)C(=O)O; Ac5c = NC1(C(=O)O)CCCC1; Aib = CC(C)(N)C(=O)O

B1: H-Ac5c-Val-Aib-Glu-Ile-Gln-Leu-Met-His-Gln-Har-Ala-Lys-Trp-Leu-Asn-Asn-NH2 (peptide)
chain: H-[Ac5c]V[Aib]EIQLMHQ[hArg]AKWLNN-NH2
SMILES: CC[C@H](C)[C@H](NC(=O)[C@H](CCC(=O)O)NC(=O)C(C)(C)NC(=O)[C@@H](NC(=O)C1(N)CCCC1)C(C)C)C(=O)N[C@@H](CCC(N)=O)C(=O)N[C@@H](CC(C)C)C(=O)N[C@@H](CCSC)C(=O)N[C@@H](Cc1c[nH]cn1)C(=O)N[C@@H](CCC(N)=O)C(=O)N[C@@H](CCCCNC(=N)N)C(=O)N[C@@H](C)C(=O)N[C@@H](CCCCN)C(=O)N[C@@H](Cc1c[nH]c2ccccc12)C(=O)N[C@@H](CC(C)C)C(=O)N[C@@H](CC(N)=O)C(=O)N[C@@H](CC(N)=O)C(N)=O
B2: H-Ac5c-Val-Aib-Glu-Ile-Gln-Leu-Met-His-Gln-Har-Ala-Lys-Trp-NH2 (peptide)
chain: H-[Ac5c]V[Aib]EIQLMHQ[hArg]AKW-NH2
SMILES: CC[C@H](C)[C@H](NC(=O)[C@H](CCC(=O)O)NC(=O)C(C)(C)NC(=O)[C@@H](NC(=O)C1(N)CCCC1)C(C)C)C(=O)N[C@@H](CCC(N)=O)C(=O)N[C@@H](CC(C)C)C(=O)N[C@@H](CCSC)C(=O)N[C@@H](Cc1c[nH]cn1)C(=O)N[C@@H](CCC(N)=O)C(=O)N[C@@H](CCCCNC(=N)N)C(=O)N[C@@H](C)C(=O)N[C@@H](CCCCN)C(=O)N[C@@H](Cc1c[nH]c2ccccc12)C(N)=O

Assays:
PTH receptor 1 = biological target: T1, PTH receptor 1 (Mus musculus, UniProt P41593); test: MC3T3-E1 cAMP efficacy assay; format: cell-based, murine; conditions: MC3T3-E1 cells
T1 construct: host or cells: MC3T3-E1 subclone 4
T1 sequence (P41593 27-591): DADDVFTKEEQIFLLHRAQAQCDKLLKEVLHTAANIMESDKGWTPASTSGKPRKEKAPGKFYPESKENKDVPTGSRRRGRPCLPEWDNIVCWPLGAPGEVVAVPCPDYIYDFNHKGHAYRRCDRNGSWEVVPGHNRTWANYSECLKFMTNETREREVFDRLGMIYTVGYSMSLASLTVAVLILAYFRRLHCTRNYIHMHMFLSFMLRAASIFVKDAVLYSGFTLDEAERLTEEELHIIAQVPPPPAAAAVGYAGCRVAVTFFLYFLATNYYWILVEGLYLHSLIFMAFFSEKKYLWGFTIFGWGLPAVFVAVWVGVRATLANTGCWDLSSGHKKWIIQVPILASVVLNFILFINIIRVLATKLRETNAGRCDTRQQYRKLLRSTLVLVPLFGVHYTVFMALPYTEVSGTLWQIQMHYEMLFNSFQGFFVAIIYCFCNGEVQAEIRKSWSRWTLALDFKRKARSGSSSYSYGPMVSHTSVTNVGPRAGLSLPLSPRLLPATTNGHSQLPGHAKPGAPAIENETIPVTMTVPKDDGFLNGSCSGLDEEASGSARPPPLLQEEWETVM
Protocol: MC3T3-E1 cells were seeded at 10,000 cells/well in 96-microtiter plates and grown overnight before the efficacy assays. On the day of analysis the growth medium was carefully removed by suction. Cells were washed once with 200 μl TB/0.1% […]. The buffer was replaced with 100 μl reaction mixture (±test peptide, +100 μM IBMX) and incubated at 37° C. for 13 min. The reaction was stopped by addition of 25 μl of ice-cold 0.5 M HCl. Cells were in the following incubated on ice for 60 min. 75 μl acetate-buffer were added to each well in a 96-well cAMP FlashPlate. […] FlashPlates were incubated overnight at 4° C., emptied by suction and counted in a TopCounter.
Determinations were performed in triplicates at all doses. Standards were included as single determinations, duplicates or triplicates in each experiment, preferentially on each plate.
Efficacy was evaluated in the concentration range from […].
Concentration-dependent cAMP responses were imported into GraphPad Prism vers. 4, transformed and plotted. Curves were fitted with a function for sigmoidal dose response curve non-linear fit Y=Bottom+(Top-Bottom)/(1+10̂((LogEC50-X))) where X is the logarithm of concentration and Y is the response. Y starts at Bottom and goes to Top with a sigmoid shape. pEC50 and the maximally inducible concentration of cAMP were evaluated. Overall statistical differences were analyzed using one-way ANOVA. Post-hoc comparisons were made by the use of Fisher's Least Significance Test. Results were considered significant, when p was lower than 0.05.

CYP2D6 = CYP2D6 (Homo sapiens, UniProt P10635); test: cell-based or functional assay
[1] = biological target: PTH receptor 1 on MC3T3-E1 cells (murine) (UniProt P41593); test: cell-based or functional assay
Saos-2 PTH1R = Saos-2 PTH1R (UniProt Q03431); test: cell-based or functional assay

Sequence of CYP2D6 (P10635 whole entry): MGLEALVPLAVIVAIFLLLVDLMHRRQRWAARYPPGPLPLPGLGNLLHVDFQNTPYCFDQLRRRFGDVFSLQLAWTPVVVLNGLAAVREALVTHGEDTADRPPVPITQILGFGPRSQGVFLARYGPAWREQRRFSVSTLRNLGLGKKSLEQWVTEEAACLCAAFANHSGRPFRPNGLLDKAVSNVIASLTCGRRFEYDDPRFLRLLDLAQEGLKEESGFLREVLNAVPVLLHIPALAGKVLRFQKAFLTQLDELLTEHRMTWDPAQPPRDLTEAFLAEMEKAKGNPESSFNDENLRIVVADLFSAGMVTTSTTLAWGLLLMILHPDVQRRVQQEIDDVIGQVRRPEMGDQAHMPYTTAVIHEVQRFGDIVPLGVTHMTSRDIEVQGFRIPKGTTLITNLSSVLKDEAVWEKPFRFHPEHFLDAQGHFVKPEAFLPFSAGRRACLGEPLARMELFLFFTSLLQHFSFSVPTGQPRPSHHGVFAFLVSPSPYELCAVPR

Molecule	agonism on PTH receptor cAMP signalling (PTH receptor 1)	Emax ± SEM [pmol/well] (PTH receptor 1; maximally inducible cAMP)	CYP2D6 activity (% of vehicle), dextrorphan formation rate in human liver microsomes, 10 µM peptide (CYP2D6)	Emax, cAMP efficacy assay in MC3T3-E1 cells [1]	agonist potency relative to SEQ ID NO: 2, cAMP in MC3T3-E1 cells [1]	pEC50, cAMP efficacy assay in MC3T3-E1 cells [1]	Emax, cAMP efficacy assay in Saos-2 cells (3T, trifluoroacetate salt) (relative to control (SEQ ID NO: 32)) (Saos-2 PTH1R)	pEC50, cAMP efficacy assay in Saos-2 cells (3T, trifluoroacetate salt) (Saos-2 PTH1R)	Emax, cAMP efficacy assay in Saos-2 cells (31T, trifluoroacetate salt) (relative to control (SEQ ID NO: 32)) (Saos-2 PTH1R)	pEC50, cAMP efficacy assay in Saos-2 cells (31T, trifluoroacetate salt) (Saos-2 PTH1R)
CC[C@H](C)[C@H](NC(=O)[C@H](CCC(=O)O)NC(=O)[C@H](CO)NC(=O)[C@@H](NC(=O)[C@@H](N)CO)C(C)C)C(=O)N[C@@H](CCC(N)=O)C(=O)N[C@@H](CC(C)C)C(=O)N[C@@H](CCSC)C(=O)N[C@@H](Cc1c[nH]cn1)C(=O)N[C@@H](CC(N)=O)C(=O)N[C@@H](CC(C)C)C(=O)NCC(=O)N[C@@H](CCCCN)C(=O)N[C@@H](Cc1c[nH]cn1)C(=O)N[C@@H](CC(C)C)C(=O)N[C@@H](CC(N)=O)C(=O)N[C@@H](CO)C(=O)N[C@@H](CCSC)C(=O)N[C@@H](CCC(=O)O)C(=O)N[C@@H](CCCNC(=N)N)C(=O)N[C@H](C(=O)N[C@@H](CCC(=O)O)C(=O)N[C@@H](Cc1c[nH]c2ccccc12)C(=O)N[C@@H](CC(C)C)C(=O)N[C@@H](CCCNC(=N)N)C(=O)N[C@@H](CCCCN)C(=O)N[C@@H](CCCCN)C(=O)N[C@@H](CC(C)C)C(=O)N[C@@H](CCC(N)=O)C(=O)N[C@@H](CC(=O)O)C(=O)N[C@H](C(=O)N[C@@H](Cc1c[nH]cn1)C(=O)N[C@@H](CC(N)=O)C(=O)N[C@@H](Cc1ccccc1)C(=O)O)C(C)C)C(C)C [SEQ ID NO: 32, reference compound]	robust cAMP response	4.4 ± 0.4 pmol/well	–	–	–	–	–	–	–	–
B1	–	–	21 % of vehicle	5.5 pmol/well	2 to 3 fold weaker	8.6 -log(M)	1.06	8.04 -log(M)	–	–
B2	–	–	22 % of vehicle	4.5 pmol/well	–	8.4 -log(M)	–	–	1.07	7.66 -log(M)
